Data on 139 substances can be found in the supplement of paper PMC12042874.

± gives the uncertainty stated by the source.

The data set can be described thus: amyloid nucleation score (Sup35N fusion, yeast selection) (log enrichment); library NNK2; higher = more nucleation; inactive = no reads after selection. In outline:
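Three technical output replicates were used for random libraries. Psi-negative yeast expressing peptides of 20 random codons fused to Sup35N were induced with 100 μM copper sulfate for 24 hours and grown 7 days at 30°C on medium lacking adenine and uracil, and input and output plasmid inserts were Illumina-sequenced, excluding sequences with under 100 input reads. The nucleation score is the DiMSum log enrichment of output over input reads, centred on the mode score of non-aggregating sequences.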

As for SYYYEGGPCWIEDLHGNVYV, the amyloid nucleation score amounted to 0.183 ± 0.64.
In turn, VMWLSVRL showed an amyloid nucleation score of 0.535 ± 0.44.
In turn, MFIMFIAVSFVGRMYGGHRH gave an amyloid nucleation score of -0.44 ± 0.26.
The substance GTVTLV came in with an amyloid nucleation score of 3.99 ± 0.11.
With SHCCGFLRGGWNRAQFGYRT the figure was 3.38 ± 0.049; with SRKSFLLCILLCSITLPLAR, -1.09 ± 0.44; with YQINCLGSYDNLQCMIGGHV, 5.965 ± 0.037.
In the case of GFLELCMFKVFFQRCARTIS, the amyloid nucleation score was -1.04 ± 1.1.
In the case of GENKDYWGHGYVSLACNRQG, the amyloid nucleation score turned out to be 0.492 ± 0.38.
As to WTQGFYTFSDHAPLVIILLE, the amyloid nucleation score result is “inactive”.
On to RRNFGGNLNWIDIVYEHVCL, for which the amyloid nucleation score was determined as 0.09 ± 0.33.
Substance DNRNCPAHWWASFTMKPGSE showed an amyloid nucleation score of 0.14 ± 0.49.
As to SFFVRKLIGNSYHN, the amyloid nucleation score amounted to 1.89 ± 0.17.
With FIFIMGIFERLH the figure was -1.54 ± 1.1; with SSLGA, -0.059 ± 0.5; with DCNVWSSSERKVLSRGTSDF, -0.193 ± 0.31.
With FLSCQTYRKNQADNADASSI the figure was -0.076 ± 0.56.
Substance TMRVHRYRTN showed an amyloid nucleation score of -0.493 ± 0.63.
Consider NYRYLLFTSAVDRLQA, for which the amyloid nucleation score was -0.117 ± 0.21.
FQHNVAIKRWRRLADSLYSV had an amyloid nucleation score of 0.723 ± 0.57.
LECRLC displayed an amyloid nucleation score of 0.308 ± 0.25.
As for SVMSRNGNYVIVLGQCNCYM, the amyloid nucleation score stood at 8.509 ± 0.022.
In turn, SASMHWYSSRCDTL had an amyloid nucleation score of 0.275 ± 0.29.
For LKVGVIDNI, the amyloid nucleation score was -1.2 ± 0.61.
With VRWTRILVLIMFYAMSSTGT the figure was 2.65 ± 0.073.
Substance TLMWESYMWS returned an amyloid nucleation score of -0.897 ± 0.63.
On to GKVRRIIWLSCKNG, for which the amyloid nucleation score is 1.05 ± 0.54.
Substance NWGNDSMRRPCCG had an amyloid nucleation score of 2 ± 0.088.
As to RCSGVP, the amyloid nucleation score was 0.908 ± 0.23.
As for SYVIP, the amyloid nucleation score is -1.06 ± 1.
With KIIVHYIYRRIRLCDSNLKR the figure was 8.398 ± 0.046.
In the case of YLCSSRITL, the amyloid nucleation score was 1.31 ± 0.47.
Substance VWVRMRKAVGAVHYRDLRSS had an amyloid nucleation score of 8.893 ± 0.075.
In the case of SCPNYTVSIWIYMPFFSWLR, the amyloid nucleation score was found to be 2.81 ± 0.08.
LGICPFNGSLRS: the amyloid nucleation score was -1.65 ± 1.1.
KVELYYWVSTLSVCSLALYS came in with an amyloid nucleation score of 6.07 ± 0.084.
KSLNDDVKLKNKGSSPSAPW: the amyloid nucleation score result was “inactive”.
STPHFH: the amyloid nucleation score is -0.146 ± 1.
Turning to YFDGVIWLLTYRIFMANDYS, the amyloid nucleation score entry is “inactive”.
With EMSVRPGVSRKIWS the figure was 0.43 ± 0.49.
Substance AFVNVVGLVYSF showed an amyloid nucleation score of -1.42 ± 0.45.
The substance STWCRMANYLITCFVTKSRV gave an amyloid nucleation score of -1.33 ± 1.1.
In turn, LSWWIHVTVWFPFQVKTGYL returned an amyloid nucleation score of -0.904 ± 0.78.
On to ENKILMGAWEVFWTYSEHPW, for which the amyloid nucleation score entry is “inactive”.
On to TLVLTEFDKGIDIVL, for which the amyloid nucleation score was -0.565 ± 0.26.
With YFLLVGAARIRRVKLLQ the figure was -0.22 ± 0.62.
In the case of PLLFIMANFCLVVLHVSFYN, the amyloid nucleation score was -0.639 ± 1.
TKCVFIVCRLYVFDMVGLYV came in with an amyloid nucleation score of -0.573 ± 0.78.
With QRVSRYNLLRARPGKIAEHF the entry was “inactive”.
With YLIRVHICGCKYVERLFHSV, the amyloid nucleation score entry is “inactive”.
In the case of GSSAYITLLHYEILNLRLLC, the amyloid nucleation score was 4.12 ± 0.079.
Substance YMVMA registered an amyloid nucleation score of -0.67 ± 1.1.
Regarding FTDRDLGNLTYDDRFDICNY, the amyloid nucleation score is -1.75 ± 0.76.
YVEVLSKVAWASDCSRIEYA registered an amyloid nucleation score of -0.342 ± 1.1.
In turn, NQNNDHSTWSIFKLCEVGCL registered an amyloid nucleation score of 8.986 ± 0.045.
For MYRPINFITCSVRMFVVIVC, the amyloid nucleation score result is “inactive”.
With CNSSSGHDKIVIGSLFRVFA the figure was -1.42 ± 0.62; with MVRVYSVCDKDHQMYNHFFR, 0.67 ± 0.44.
With FLINFAMIISIFRLSYHRPV the figure was -0.599 ± 0.55.
Substance YMCRYGFMDNFCAVHVSFVE came in with an amyloid nucleation score of 5.645 ± 0.055.
With FRQRDKRVTEMTPAERGGQ, the amyloid nucleation score turned out to be 2.79 ± 0.091.
In the case of YLTISIAGVVLNLFVIACIV, the amyloid nucleation score is 0.757 ± 0.4.
The substance GSQGFPRRFSPSMPM showed an amyloid nucleation score of 0.886 ± 0.8.
On to SLNILDCFTCGYMTSDISVA, for which the amyloid nucleation score was -0.674 ± 0.32.
With LVLENHWYLLVCRNPVQ the figure was -0.213 ± 0.65; with SMSKYAISYKLVVRKKYRSG, 1.83 ± 0.11.
With AWFMCSFECVTRSVKHALR the figure was 0.523 ± 0.64.
With MSYAYKVRSCCVMFMMFRSW the figure was -0.336 ± 0.54; with RGYLTAT, -0.134 ± 0.53; with MADTPSNFKYYLPKLFKG, “inactive”.
In turn, LLQKDEVRE returned an amyloid nucleation score of -0.505 ± 0.3.
With LAFAILFPFGSLRDGST the figure was 0.585 ± 0.8.
For the substance YKRRRWRVENRNGVSFSHTD, the amyloid nucleation score is 0.806 ± 0.3.
Substance TDNMDEMDREYLSCHKFCFG showed an amyloid nucleation score of 3.69 ± 0.045.
On to QTPIGK, for which the amyloid nucleation score is -0.66 ± 1.1.
The substance LRGVLLSETRCAKEGLPTLS yielded an amyloid nucleation score of 0.365 ± 0.36.
In turn, LRKNSLTCSSKKPEKAVTFC came in with an amyloid nucleation score of -1.42 ± 1.
As to DRHYCQKGEWRKDEDVFPVE, the amyloid nucleation score turned out to be 0.13 ± 1.1.
Regarding LFKFDVPTNIKCYIRSSCSI, the amyloid nucleation score result is “inactive”.
The substance LSIMHYIIYRLDFAFSWKGG gave an amyloid nucleation score of -1.05 ± 1.1.
The substance KKEVINWYFLTYAGLEKLCL registered an amyloid nucleation score of -0.715 ± 0.48.
With SIVLMCVLMYPPIDVSSWLS the figure was 4.415 ± 0.042.
Take FNCPRSAMIVNQRHRILSGV: the amyloid nucleation score was -0.057 ± 0.43.
With LNIFI the figure was 2.96 ± 0.062.
For VTLRTANGDKWKTPASNI, the amyloid nucleation score result was “inactive”.
Regarding VDVRMDEWVDRTAFAWMMRV, the amyloid nucleation score worked out at 0.875 ± 0.43.
On to PGDMLSGAFHMCISNCVTSC, for which the amyloid nucleation score stood at 0.319 ± 0.38.
In the case of SHGVLRMAKIRSWGFDVTVM, the amyloid nucleation score came out at 0.02 ± 0.74.
As for SLEFCLVWFSSMRRMCV, the amyloid nucleation score turned out to be 0.673 ± 0.48.
The substance CGMRTEMTLGCLILAAGTWT registered an amyloid nucleation score of 0.111 ± 0.5.
For the substance SLPRWTVCVCVQADGYWMWV, the amyloid nucleation score stood at 7.12 ± 0.084.
In turn, FVYNQWSYRLRYLTVAIRD returned an amyloid nucleation score of -0.111 ± 0.56.
With IMMLEVDDLYGIEQSTFWK, the amyloid nucleation score is -0.33 ± 0.64.
The substance PMCYSVSSNLWVTTLQWGYL yielded an amyloid nucleation score of 2.56 ± 0.14.
PWPYIWSRCSQTDTVSCEHS showed an amyloid nucleation score of -0.212 ± 0.33.
On to LKWVTFEST, for which the amyloid nucleation score was -0.418 ± 1.1.
In turn, VQSGWTSKGVLPQVANRTLR had an amyloid nucleation score of 0.827 ± 0.44.
In turn, GSRDDSTVLVRKSSCRVEGS came in with an amyloid nucleation score of 0.665 ± 0.37.
Take YQNIFLRTAALRAGSAD: the amyloid nucleation score is 0.765 ± 0.24.
In turn, TWNISILHCI yielded an amyloid nucleation score of 4.84 ± 0.084.
LCAGGVGRRWLVLDTAECDG returned an amyloid nucleation score of 0.59 ± 0.64.
In the case of SGVLHRCEIPVLRACRLLL, the amyloid nucleation score came out at 0.425 ± 0.37.
With EVAEQH the figure was 0.426 ± 0.16; with SMLEDRYHSALTENRRDWKQ, 0.564 ± 0.28.
Take KNKQRYSPIITLLVTKSVAF: the amyloid nucleation score stood at 2.67 ± 0.056.
Regarding SGWQFQSWRVQRMWLVELSC, the amyloid nucleation score is 0.494 ± 0.49.
Take VYQYWYIAISLRGRPGQCRL: the amyloid nucleation score is 4.06 ± 0.05.
As for FFVFGSWPHSSQGEGSLHKG, the amyloid nucleation score amounted to 0.387 ± 0.8.
WARCHVLA gave an amyloid nucleation score of -0.292 ± 0.55.
With CVILLVIFMLYIYWFSDMFL, the amyloid nucleation score was -0.721 ± 0.63.
In the case of LEWLFA, the amyloid nucleation score amounted to 0.155 ± 1.1.
Consider SIIIVKFLIGWRILWRSLTY, for which the amyloid nucleation score result is “inactive”.
As to IICSNRQIRFKKGDFFIVFW, the amyloid nucleation score entry is “inactive”.
With MDGIGTFNLSENR the entry was “inactive”; with CGQFAYYGACDVGIFFRS, 4.74 ± 0.037.
For the substance CRSTGIDIIYYHISFFLYIW, the amyloid nucleation score result was “inactive”.
With MDIFCYTGRPTSAKRAS the figure was -1.05 ± 0.64.
RIKCRTLLGQFLMAVVIEMY displayed an amyloid nucleation score of 0.309 ± 0.31.
With VLHCHWTGFSRSTCVHLVHF, the amyloid nucleation score is 3.63 ± 0.084.
In turn, LLRRGVDIWVEHFRE yielded an amyloid nucleation score of -0.613 ± 0.64.
In the case of NFLDMEWTNLLSVMCVDFWS, the amyloid nucleation score turned out to be 4.55 ± 0.062.
FRVVRFVQTGSTFSIARFIK yielded an amyloid nucleation score of -0.83 ± 0.39.
The substance LVSYV gave an amyloid nucleation score of -0.873 ± 0.76.
The substance AVFVPNSNALVLTVLT returned an amyloid nucleation score of 0.603 ± 0.51.
VRATCWS returned an amyloid nucleation score of -0.418 ± 0.55.
With VWLYKSLIINFDSKWRLS the figure was 6.268 ± 0.034.
Substance ISPIESSDRMGGCSLRAILP had an amyloid nucleation score of -0.66 ± 0.35.
With PQTLCINISFDYRYMNQVLD the figure was 7.449 ± 0.074.
Turning to STLKPVNPGKVRH, the amyloid nucleation score amounted to 0.445 ± 0.57.
With LSGVFNSFCLRGNGREWVAL the figure was -0.034 ± 0.32.
SGYVIHLVDDKALHTCDRNQ displayed an amyloid nucleation score of 0.294 ± 0.18.
With GLYRGTLVYKTYVLGNNKPL the figure was -1.33 ± 1.1.
In the case of NRTFSQRSVRLVSCPLLSKA, the amyloid nucleation score result is “inactive”.
With STGSNFDESSKQCFAFICKK the entry was “inactive”.
Consider NYSDWRVSTEIRSMGRYRPH, for which the amyloid nucleation score came to 0.069 ± 0.65.
On to AYSKTNVFNSWWLVKCLFLF, for which the amyloid nucleation score entry was “inactive”.
For the substance QTFDYW, the amyloid nucleation score was determined as 0.256 ± 0.74.
With SFMGEK the figure was -0.453 ± 0.74.
With GMTVNYRRMVQNQRMFGPGI the figure was -0.42 ± 0.37.
